Results published in publication PMC9482650, “Quantitative fragmentomics allow affinity mapping of interactomes” (Nature Communications, 2022).

T1: SHANK1, Q9Y566
T1 sequence (Q9Y566 658-767, limits assumed, looked up): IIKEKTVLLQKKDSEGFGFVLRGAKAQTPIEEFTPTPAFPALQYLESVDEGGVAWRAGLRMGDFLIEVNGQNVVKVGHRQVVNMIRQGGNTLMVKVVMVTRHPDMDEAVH

T2: LIN7C, Q9NUP9
T2 sequence (Q9NUP9 88-185, limits assumed, looked up): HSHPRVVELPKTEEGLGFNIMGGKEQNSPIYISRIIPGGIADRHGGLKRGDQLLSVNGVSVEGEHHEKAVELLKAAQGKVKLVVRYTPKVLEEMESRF

T3: SNTG2, Q9NY99
T3 sequence (Q9NY99 68-166, limits assumed, looked up): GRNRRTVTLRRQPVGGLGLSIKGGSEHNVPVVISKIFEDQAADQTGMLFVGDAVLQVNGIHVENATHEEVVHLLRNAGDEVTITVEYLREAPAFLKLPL

T4: SYNJ2BP, P57105
T4 sequence (P57105 8-110, limits assumed, looked up): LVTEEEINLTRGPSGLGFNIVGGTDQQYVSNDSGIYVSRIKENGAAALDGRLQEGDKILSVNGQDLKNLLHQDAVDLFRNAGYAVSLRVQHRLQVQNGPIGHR

T5: TJP3_3, O95049
T5 sequence (O95049 375-456, limits assumed, looked up): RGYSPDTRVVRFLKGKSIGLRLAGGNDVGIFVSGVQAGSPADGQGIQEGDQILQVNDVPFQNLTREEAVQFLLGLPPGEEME

T6: MPDZ_12, O75970
T6 sequence (O75970 1857-1958, limits assumed, looked up): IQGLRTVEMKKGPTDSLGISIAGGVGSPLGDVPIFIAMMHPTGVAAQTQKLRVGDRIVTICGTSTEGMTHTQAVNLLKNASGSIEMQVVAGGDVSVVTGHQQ

T7: DFNB31_1, Q9P202
T7 sequence (Q9P202 135-233, limits assumed, looked up): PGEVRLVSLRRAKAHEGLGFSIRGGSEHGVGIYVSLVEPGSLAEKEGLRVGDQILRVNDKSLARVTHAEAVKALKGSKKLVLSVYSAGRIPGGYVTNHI

T8: LRRC7, Q96NW7
T8 sequence (Q96NW7 1440-1537, limits assumed, looked up): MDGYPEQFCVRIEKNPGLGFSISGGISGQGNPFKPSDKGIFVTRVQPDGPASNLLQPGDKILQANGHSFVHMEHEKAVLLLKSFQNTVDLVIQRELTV

T9: RHPN1, Q8TCX5
T9 sequence (Q8TCX5 508-602, limits assumed, looked up): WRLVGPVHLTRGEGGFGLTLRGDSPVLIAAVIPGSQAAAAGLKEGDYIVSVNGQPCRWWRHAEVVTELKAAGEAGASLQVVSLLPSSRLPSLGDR


Each binder was assayed against SCRIB_2, Q14160 (assay: holdup assay). Settings: plain residues with an end cap or a label only (N-terminal biotin on a linker: ado-ado).
SCRIB_2, Q14160, sequence (Q14160 857-960): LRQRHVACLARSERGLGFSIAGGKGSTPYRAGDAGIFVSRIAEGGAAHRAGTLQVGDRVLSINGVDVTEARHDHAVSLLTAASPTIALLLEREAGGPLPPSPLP
Parameters: key: below the threshold = too weak to quantify, mostly under pKd 3.1 to 4

Row | Binder | pKd
1 | QSGLYESEEL [MYOT, Q9UBF9] | below the threshold
2 | AQRARSPSDV [GPR12, P47775] | below the threshold

Each binder was assayed against T1, SHANK1, Q9Y566 (assay: holdup assay). Settings: plain residues with an end cap or a label only (N-terminal biotin on a linker: ado-ado).
Parameters: key: below the threshold = too weak to quantify, mostly under pKd 3.1 to 4

Row | Binder | pKd
3 | QSGLYESEEL [MYOT, Q9UBF9] | 3.72
4 | AQRARSPSDV [GPR12, P47775] | below the threshold

What follows are binders tested against MAGI3_2, Q5TCQ9 (assay: holdup assay). Settings: plain residues with an end cap or a label only (N-terminal biotin on a linker: ado-ado).
MAGI3_2, Q5TCQ9, sequence (Q5TCQ9 398-503): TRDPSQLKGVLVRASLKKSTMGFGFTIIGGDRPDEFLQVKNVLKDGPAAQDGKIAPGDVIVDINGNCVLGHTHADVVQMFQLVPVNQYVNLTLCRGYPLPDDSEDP
Parameters: key: below the threshold = too weak to quantify, mostly under pKd 3.1 to 4

Row | Binder | pKd
5 | QSGLYESEEL [MYOT, Q9UBF9] | below the threshold
6 | AQRARSPSDV [GPR12, P47775] | 3.5

The binders below were run against PICK1, Q9NRD5 (assay: holdup assay). Settings: plain residues with an end cap or a label only (N-terminal biotin on a linker: ado-ado).
PICK1, Q9NRD5, sequence (Q9NRD5 17-115): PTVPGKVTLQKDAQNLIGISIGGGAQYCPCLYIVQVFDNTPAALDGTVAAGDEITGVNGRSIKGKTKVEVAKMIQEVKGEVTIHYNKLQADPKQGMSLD
Parameters: key: below the threshold = too weak to quantify, mostly under pKd 3.1 to 4

Row | Binder | pKd
7 | QSGLYESEEL [MYOT, Q9UBF9] | below the threshold
8 | AQRARSPSDV [GPR12, P47775] | 3.99

Each binder was assayed against PDZRN4_1, Q6ZMN7 (assay: holdup assay). Settings: plain residues with an end cap or a label only (N-terminal biotin on a linker: ado-ado).
PDZRN4_1, Q6ZMN7, sequence (Q6ZMN7 213-318): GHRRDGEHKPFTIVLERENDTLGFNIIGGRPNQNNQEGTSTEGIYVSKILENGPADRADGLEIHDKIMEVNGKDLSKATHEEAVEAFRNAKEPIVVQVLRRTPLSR
Parameters: key: below the threshold = too weak to quantify, mostly under pKd 3.1 to 4

Row | Binder | pKd
9 | QSGLYESEEL [MYOT, Q9UBF9] | below the threshold
10 | AQRARSPSDV [GPR12, P47775] | below the threshold

The binders below were run against FRMPD4, Q14CM0 (assay: holdup assay). Settings: plain residues with an end cap or a label only (N-terminal biotin on a linker: ado-ado).
FRMPD4, Q14CM0, sequence (Q14CM0 67-160): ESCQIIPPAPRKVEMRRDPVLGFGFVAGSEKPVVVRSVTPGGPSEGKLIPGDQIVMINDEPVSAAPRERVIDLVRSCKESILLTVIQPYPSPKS
Parameters: key: below the threshold = too weak to quantify, mostly under pKd 3.1 to 4

Row | Binder | pKd
11 | QSGLYESEEL [MYOT, Q9UBF9] | below the threshold
12 | AQRARSPSDV [GPR12, P47775] | below the threshold

The binders below were run against FRMPD2_3, Q68DX3 (assay: holdup assay). Settings: plain residues with an end cap or a label only (N-terminal biotin on a linker: ado-ado).
FRMPD2_3, Q68DX3, sequence (Q68DX3 1073-1166): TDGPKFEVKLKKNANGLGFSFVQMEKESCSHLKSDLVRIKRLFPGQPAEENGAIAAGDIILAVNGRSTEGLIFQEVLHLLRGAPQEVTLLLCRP
Parameters: key: below the threshold = too weak to quantify, mostly under pKd 3.1 to 4

Row | Binder | pKd
13 | QSGLYESEEL [MYOT, Q9UBF9] | below the threshold
14 | AQRARSPSDV [GPR12, P47775] | below the threshold

What follows are binders tested against DLG1_2, Q12959 (assay: holdup assay). Settings: plain residues with an end cap or a label only (N-terminal biotin on a linker: ado-ado).
DLG1_2, Q12959, sequence (Q12959 314-412): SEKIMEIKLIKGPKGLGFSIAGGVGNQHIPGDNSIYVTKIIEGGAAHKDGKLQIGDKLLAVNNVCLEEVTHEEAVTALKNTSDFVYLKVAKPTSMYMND
Parameters: key: below the threshold = too weak to quantify, mostly under pKd 3.1 to 4

Row | Binder | pKd
15 | QSGLYESEEL [MYOT, Q9UBF9] | below the threshold
16 | AQRARSPSDV [GPR12, P47775] | 3.75

The binders below were run against T2, LIN7C, Q9NUP9 (assay: holdup assay). Settings: plain residues with an end cap or a label only (N-terminal biotin on a linker: ado-ado).
Parameters: key: below the threshold = too weak to quantify, mostly under pKd 3.1 to 4

Row | Binder | pKd
17 | QSGLYESEEL [MYOT, Q9UBF9] | 3.58
18 | AQRARSPSDV [GPR12, P47775] | below the threshold

The binders below were run against MAGI1_1, Q96QZ7 (assay: holdup assay). Settings: plain residues with an end cap or a label only (N-terminal biotin on a linker: ado-ado).
MAGI1_1, Q96QZ7, sequence (Q96QZ7 1-106): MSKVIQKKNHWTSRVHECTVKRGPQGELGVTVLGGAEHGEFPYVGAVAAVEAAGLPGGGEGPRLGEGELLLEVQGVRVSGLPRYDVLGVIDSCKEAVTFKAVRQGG
Parameters: key: below the threshold = too weak to quantify, mostly under pKd 3.1 to 4

Row | Binder | pKd
19 | QSGLYESEEL [MYOT, Q9UBF9] | below the threshold
20 | AQRARSPSDV [GPR12, P47775] | 3.67

What follows are binders tested against TJP2_1, Q9UDY2 (assay: holdup assay). Settings: plain residues with an end cap or a label only (N-terminal biotin on a linker: ado-ado).
TJP2_1, Q9UDY2, sequence (Q9UDY2 24-128): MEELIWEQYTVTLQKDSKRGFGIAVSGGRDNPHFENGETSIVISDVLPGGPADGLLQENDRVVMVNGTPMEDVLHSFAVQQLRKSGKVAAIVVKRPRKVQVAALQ
Parameters: key: below the threshold = too weak to quantify, mostly under pKd 3.1 to 4

Row | Binder | pKd
21 | QSGLYESEEL [MYOT, Q9UBF9] | below the threshold
22 | AQRARSPSDV [GPR12, P47775] | below the threshold

What follows are binders tested against DLG4_2, P78352 (assay: holdup assay). Settings: plain residues with an end cap or a label only (N-terminal biotin on a linker: ado-ado).
DLG4_2, P78352, sequence (P78352 155-259): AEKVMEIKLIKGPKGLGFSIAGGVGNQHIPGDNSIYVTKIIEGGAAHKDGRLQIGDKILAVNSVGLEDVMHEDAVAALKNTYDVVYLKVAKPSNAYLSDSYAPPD
Parameters: key: below the threshold = too weak to quantify, mostly under pKd 3.1 to 4

Row | Binder | pKd
23 | QSGLYESEEL [MYOT, Q9UBF9] | 3.53
24 | AQRARSPSDV [GPR12, P47775] | 3.92

What follows are binders tested against Inadl_10, Q8NI35 (assay: holdup assay). Settings: plain residues with an end cap or a label only (N-terminal biotin on a linker: ado-ado).
Inadl_10, Q8NI35, sequence (Q8NI35 1673-1763): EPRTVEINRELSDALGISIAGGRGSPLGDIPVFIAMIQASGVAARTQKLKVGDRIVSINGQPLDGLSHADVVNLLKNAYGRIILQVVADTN
Parameters: key: below the threshold = too weak to quantify, mostly under pKd 3.1 to 4

Row | Binder | pKd
25 | QSGLYESEEL [MYOT, Q9UBF9] | below the threshold
26 | AQRARSPSDV [GPR12, P47775] | below the threshold

Each binder was assayed against LNX1_1, Q8TBB1 (assay: holdup assay). Settings: plain residues with an end cap or a label only (N-terminal biotin on a linker: ado-ado).
LNX1_1, Q8TBB1, sequence (Q8TBB1 261-371): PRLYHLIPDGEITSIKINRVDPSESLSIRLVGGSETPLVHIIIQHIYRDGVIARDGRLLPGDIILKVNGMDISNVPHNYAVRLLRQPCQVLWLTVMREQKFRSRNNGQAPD
Parameters: key: below the threshold = too weak to quantify, mostly under pKd 3.1 to 4

Row | Binder | pKd
27 | QSGLYESEEL [MYOT, Q9UBF9] | below the threshold
28 | AQRARSPSDV [GPR12, P47775] | 3.79

Each binder was assayed against T3, SNTG2, Q9NY99 (assay: holdup assay). Settings: plain residues with an end cap or a label only (N-terminal biotin on a linker: ado-ado).
Parameters: key: below the threshold = too weak to quantify, mostly under pKd 3.1 to 4

Row | Binder | pKd
29 | QSGLYESEEL [MYOT, Q9UBF9] | below the threshold
30 | AQRARSPSDV [GPR12, P47775] | below the threshold

Each binder was assayed against T4, SYNJ2BP, P57105 (assay: holdup assay). Settings: plain residues with an end cap or a label only (N-terminal biotin on a linker: ado-ado).
Parameters: key: below the threshold = too weak to quantify, mostly under pKd 3.1 to 4

Row | Binder | pKd
31 | QSGLYESEEL [MYOT, Q9UBF9] | 3.59
32 | AQRARSPSDV [GPR12, P47775] | 4.14

What follows are binders tested against NHERF4_1, Q86UT5-2 (assay: holdup assay). Settings: plain residues with an end cap or a label only (N-terminal biotin on a linker: ado-ado).
NHERF4_1, Q86UT5-2, sequence (Q86UT5 other isoform, or with tags, fused parts or gaps): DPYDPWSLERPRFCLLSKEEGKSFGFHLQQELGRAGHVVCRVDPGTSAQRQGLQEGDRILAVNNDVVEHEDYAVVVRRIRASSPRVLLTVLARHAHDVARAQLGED
Parameters: key: below the threshold = too weak to quantify, mostly under pKd 3.1 to 4

Row | Binder | pKd
33 | QSGLYESEEL [MYOT, Q9UBF9] | 4.41
34 | AQRARSPSDV [GPR12, P47775] | below the threshold

The binders below were run against IL16_3, Q14005 (assay: holdup assay). Settings: plain residues with an end cap or a label only (N-terminal biotin on a linker: ado-ado).
IL16_3, Q14005, sequence (Q14005 1107-1207): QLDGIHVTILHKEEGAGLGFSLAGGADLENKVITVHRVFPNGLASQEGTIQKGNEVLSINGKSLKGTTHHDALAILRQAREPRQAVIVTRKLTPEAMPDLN
Parameters: key: below the threshold = too weak to quantify, mostly under pKd 3.1 to 4

Row | Binder | pKd
35 | QSGLYESEEL [MYOT, Q9UBF9] | below the threshold
36 | AQRARSPSDV [GPR12, P47775] | below the threshold

These binders were tested against FRMPD3, Q5JV73 (assay: holdup assay). Settings: plain residues with an end cap or a label only (N-terminal biotin on a linker: ado-ado).
FRMPD3, Q5JV73, sequence (Q5JV73 12-100): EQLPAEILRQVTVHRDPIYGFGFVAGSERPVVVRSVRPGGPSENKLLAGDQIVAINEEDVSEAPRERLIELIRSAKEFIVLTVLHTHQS
Parameters: key: below the threshold = too weak to quantify, mostly under pKd 3.1 to 4

Row | Binder | pKd
37 | QSGLYESEEL [MYOT, Q9UBF9] | below the threshold
38 | AQRARSPSDV [GPR12, P47775] | below the threshold

What follows are binders tested against T5, TJP3_3, O95049 (assay: holdup assay). Settings: plain residues with an end cap or a label only (N-terminal biotin on a linker: ado-ado).
Parameters: key: below the threshold = too weak to quantify, mostly under pKd 3.1 to 4

Row | Binder | pKd
39 | QSGLYESEEL [MYOT, Q9UBF9] | below the threshold
40 | AQRARSPSDV [GPR12, P47775] | below the threshold

Each binder was assayed against Inadl_5, Q8NI35 (assay: holdup assay). Settings: plain residues with an end cap or a label only (N-terminal biotin on a linker: ado-ado).
Inadl_5, Q8NI35, sequence (Q8NI35 673-780): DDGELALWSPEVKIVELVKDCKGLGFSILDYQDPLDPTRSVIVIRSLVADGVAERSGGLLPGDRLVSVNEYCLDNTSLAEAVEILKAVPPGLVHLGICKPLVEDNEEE
Parameters: key: below the threshold = too weak to quantify, mostly under pKd 3.1 to 4

Row | Binder | pKd
41 | QSGLYESEEL [MYOT, Q9UBF9] | below the threshold
42 | AQRARSPSDV [GPR12, P47775] | 3.85

The binders below were run against HTRA2, O43464 (assay: holdup assay). Settings: plain residues with an end cap or a label only (N-terminal biotin on a linker: ado-ado).
HTRA2, O43464, sequence (O43464 355-458): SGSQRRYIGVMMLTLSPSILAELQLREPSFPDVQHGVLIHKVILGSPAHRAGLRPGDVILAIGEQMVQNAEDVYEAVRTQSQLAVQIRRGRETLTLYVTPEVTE
Parameters: key: below the threshold = too weak to quantify, mostly under pKd 3.1 to 4

Row | Binder | pKd
43 | QSGLYESEEL [MYOT, Q9UBF9] | below the threshold
44 | AQRARSPSDV [GPR12, P47775] | below the threshold

These binders were tested against Inadl_8, Q8NI35 (assay: holdup assay). Settings: plain residues with an end cap or a label only (N-terminal biotin on a linker: ado-ado).
Inadl_8, Q8NI35, sequence (Q8NI35 1425-1530): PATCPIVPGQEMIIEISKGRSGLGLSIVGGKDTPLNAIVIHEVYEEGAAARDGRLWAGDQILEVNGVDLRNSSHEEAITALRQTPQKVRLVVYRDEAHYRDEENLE
Parameters: key: below the threshold = too weak to quantify, mostly under pKd 3.1 to 4

Row | Binder | pKd
45 | QSGLYESEEL [MYOT, Q9UBF9] | below the threshold
46 | AQRARSPSDV [GPR12, P47775] | 4.6

These binders were tested against T6, MPDZ_12, O75970 (assay: holdup assay). Settings: plain residues with an end cap or a label only (N-terminal biotin on a linker: ado-ado).
Parameters: key: below the threshold = too weak to quantify, mostly under pKd 3.1 to 4

Row | Binder | pKd
47 | QSGLYESEEL [MYOT, Q9UBF9] | below the threshold
48 | AQRARSPSDV [GPR12, P47775] | below the threshold

What follows are binders tested against T7, DFNB31_1, Q9P202 (assay: holdup assay). Settings: plain residues with an end cap or a label only (N-terminal biotin on a linker: ado-ado).
Parameters: key: below the threshold = too weak to quantify, mostly under pKd 3.1 to 4

Row | Binder | pKd
49 | QSGLYESEEL [MYOT, Q9UBF9] | below the threshold
50 | AQRARSPSDV [GPR12, P47775] | below the threshold

Each binder was assayed against T8, LRRC7, Q96NW7 (assay: holdup assay). Settings: plain residues with an end cap or a label only (N-terminal biotin on a linker: ado-ado).
Parameters: key: below the threshold = too weak to quantify, mostly under pKd 3.1 to 4

Row | Binder | pKd
51 | QSGLYESEEL [MYOT, Q9UBF9] | below the threshold
52 | AQRARSPSDV [GPR12, P47775] | below the threshold

Each binder was assayed against T9, RHPN1, Q8TCX5 (assay: holdup assay). Settings: plain residues with an end cap or a label only (N-terminal biotin on a linker: ado-ado).
Parameters: key: below the threshold = too weak to quantify, mostly under pKd 3.1 to 4

Row | Binder | pKd
53 | QSGLYESEEL [MYOT, Q9UBF9] | below the threshold
54 | AQRARSPSDV [GPR12, P47775] | below the threshold

Each binder was assayed against FRMPD2_1, Q68DX3 (assay: holdup assay). Settings: plain residues with an end cap or a label only (N-terminal biotin on a linker: ado-ado).
FRMPD2_1, Q68DX3, sequence (Q68DX3 770-861): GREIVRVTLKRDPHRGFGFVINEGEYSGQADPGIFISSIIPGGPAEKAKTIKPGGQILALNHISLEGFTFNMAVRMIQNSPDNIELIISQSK
Parameters: key: below the threshold = too weak to quantify, mostly under pKd 3.1 to 4

Row | Binder | pKd
55 | QSGLYESEEL [MYOT, Q9UBF9] | below the threshold
56 | AQRARSPSDV [GPR12, P47775] | below the threshold
